Consider one molecule from patent publication US20200131270A1 (NATIONAL UNIVERSITY CORPORATION HOKKAIDO UNIVERSITY, published 2020).

The target in one assay is T1, canine PD-1-Ig (canine; rabbit).
T1 construct: extracellular domain;domain: Fc; also called cPD-1-Ig; cPD-1
Description: SPR (Biacore X100): cPD-L1-His captured by anti-histidine antibody on CM5 chip, canine PD-1-Ig as analyte.

Another assay deals with T2, canine CD80-Ig (canine; rabbit).
T2 construct: extracellular domain;domain: Fc; also called cCD80-Ig; cCD80
Nature of the assay: SPR (Biacore X100): cPD-L1-His captured by anti-histidine antibody on CM5 chip, canine CD80-Ig as analyte.

B1: canine PD-L1-His (ligand)
chain: FTITVSKDLYVVEYGGNVTMECKFPVEKQLNLFALIVYWEMEDKKIIQFVNGKEDLKVQHSSYSQRAQLLKDQLFLGKAALQITDVRLQDAGVYCCLIGYGGADYKRITLKVHAPYRNISQRISVDPVTSEHELMCQAEGYPEAEVIWTSSDHRVLSGKTTITNSNREEKLFNVTSTLNINATANEIFYCTFQRSGPEENNTAELVIPERLPVPASERTH
Turning to B1, the values for the Kd in the assay with canine PD-1-Ig and in the assay with canine CD80-Ig were 25.4 nM and 24.3 nM, respectively.
